From publication doi:10.1101/2023.05.22.541748 (bioRxiv, 2023)

Target: ubiquitin (wild type, Q40Ub) (UniProt P0CG48 1-76)
Test: NMR chemical shift perturbations of the conjugate against the free proteins

- binding result: binds
B1: Ubc13 C87K/K92T/K94Q (enzyme)
chain: MAGLPRRIIKETQRLLAEPVPGIKAEPDESNARYFHVVIAGPQDSPFEGGTFKLELFLPEEYPMAAPKVRFMTKIYHPNVDKLGRIKLDILTDQWSPALQIRTVLLSIQALLSAPNPDDPLANDVAEQWKTNEAQAIETARAWTRLYAMNNI
